According to patent US12060433B2, “CD73 inhibitor and A2A/A2B adenosine receptor inhibitor combination therapy” (Incyte Corporation, priority 2020, dated 2024):
Numbering of substitutions follows the chain as printed.

B1: CL25_hu_8-4: humanized CL25 antibody, VH and VL in FIG. 1B (antibody, V domains shown)
VH: QVQLVQSGAEVKKPGASVKVSCKASGYTFTSYGLSWVRQATGQGLEWMGEIYPGSGNTYYNEKFKGRVTMTRNTSISTAYMELSSLRSEDTAVYYCARYDYLGSSYGFDYWGAGTTVTVSS
VL: DIQMTQSPSSLSASVGDRVTITCKASQDVSTAVAWYQQKPGKAPKLLLYSASYRYSGVPSRFSGSGSGTDYTLTISSLQPEDFATYYCQQHYNTPYTFGGGTKLEIK
B2: CL25_hu_9-4: humanized CL25 antibody, VH and VL in FIG. 1C (antibody, V domains shown)
VH: B1 VH with A16S, T41P, M70I, R72A, N73D, T74E, I76T
VL: B1 VL
B3: CL25_hu_11-4: humanized CL25 antibody, VH and VL in FIG. 1A (antibody, V domains shown)
VH: B1 VH with R72A
VL: B1 VL
B4: CL25_hu_9-6: humanized CL25 antibody, VH and VL in FIG. 1C (antibody, V domains shown)
VH: B1 VH with A16S, T41P, M70I, R72A, N73D, T74E, I76T
VL: B1 VL with D1A, Q3R, L11F, V15T, L48I, Y71F, S77C, P80S
B5: CL25_hu_11-6: humanized CL25 antibody, VH and VL in FIG. 1B (antibody, V domains shown)
VH: B1 VH with R72A
VL: B1 VL with D1A, Q3R, L11F, V15T, L48I, Y71F, S77C, P80S
B6: CL25_hu_11-5: humanized CL25 antibody, VH and VL in FIG. 1B (antibody, V domains shown)
VH: B1 VH with R72A
VL: DIVMTQSPDSLAVSLGERATINCKASQDVSTAVAWYQQKPGQPPKLLIYSASYRYSGVPDRFSGSGSGTDFTLTISSLQAEDVAVYYCQQHYNTPYTFGGGTKLEIK
B7: CL25_hu_10-4: humanized CL25 antibody, VH and VL in FIG. 1A (antibody, V domains shown)
VH: EVQLVQSGAEVKKPGESLKISCKGSGYTFTSYGLSWVRQMPGKGLEWMGEIYPGSGNTYYNEKFKGQVTISADKSISTAYLQWSSLKASDTAMYYCARYDYLGSSYGFDYWGAGTTVTVSS
VL: B1 VL
B8: CL25_hu_8-5: humanized CL25 antibody, VH and VL in FIG. 1B (antibody, V domains shown)
VH: B1 VH
VL: B6 VL
B9: CL25_hu_8-6: humanized CL25 antibody, VH and VL in FIG. 1C (antibody, V domains shown)
VH: B1 VH
VL: B1 VL with D1A, Q3R, L11F, V15T, L48I, Y71F, S77C, P80S
B10: CL25_hu_9-5: humanized CL25 antibody, VH and VL in FIG. 1C (antibody, V domains shown)
VH: B1 VH with A16S, T41P, M70I, R72A, N73D, T74E, I76T
VL: B6 VL
B11: CL25_hu_10-6: humanized CL25 antibody, VH and VL in FIG. 1A (antibody, V domains shown)
VH: B7 VH
VL: B1 VL with D1A, Q3R, L11F, V15T, L48I, Y71F, S77C, P80S

The molecules below were run against T1, human CD73 (SEQ ID NO: 70) (Homo sapiens, UniProt P21589) (assay: SPR (Biacore 8K) binding affinity and kinetics to human CD73). Conditions: human CD73, open conformation, 25° C.
T1 construct: purchased BPS Bioscience
T1 sequence (P21589 27-549): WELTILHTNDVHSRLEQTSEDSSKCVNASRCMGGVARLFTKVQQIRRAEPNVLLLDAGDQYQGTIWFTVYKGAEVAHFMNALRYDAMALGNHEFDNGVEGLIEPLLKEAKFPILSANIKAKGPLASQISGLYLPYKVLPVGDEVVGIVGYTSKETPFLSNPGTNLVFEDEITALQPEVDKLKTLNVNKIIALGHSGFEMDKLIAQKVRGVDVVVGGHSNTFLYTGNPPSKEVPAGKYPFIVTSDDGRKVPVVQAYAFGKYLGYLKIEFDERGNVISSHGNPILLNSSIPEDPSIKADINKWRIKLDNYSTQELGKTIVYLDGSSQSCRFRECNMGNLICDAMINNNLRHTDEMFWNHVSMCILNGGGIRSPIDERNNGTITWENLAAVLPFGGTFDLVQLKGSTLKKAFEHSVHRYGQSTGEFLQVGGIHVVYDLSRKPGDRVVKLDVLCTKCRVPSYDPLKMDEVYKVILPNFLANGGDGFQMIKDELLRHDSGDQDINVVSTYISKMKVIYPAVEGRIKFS
Procedure: The SPR running buffer (10 mM HEPES, 150 mM NaCl, 3 mM EDTA and 0.05% v/v Surfactant P20, pH 7.4) was prepared from 10×HBS-EP Buffer (GE Healthcare). Anti-human Fc antibodies (GE Healthcare) were immobilized via amine coupling on all sixteen flow cells of an S series sensor chip CM5 (GE Healthcare). The immobilization levels were ˜9000 RU for all flow cells. The desired capturing level of anti-CD73 antibody was achieved by flowing appropriate concentration of anti-CD73 antibody through the active flow cell of each channel. The non-cleavable ADP analogue APCP (adenosine-5′-(α,β-methylene) diphosphate) with the presence of Zn^2+ can be used to shift the CD73 conformational equilibrium from open towards closed. Therefore, recombinant CD73 was incubated with SPR running buffer in the presence of 100 μM APCP and 10 μM ZnCl2 (closed SPR running buffer) to study the binding of anti-CD73 antibody to the CD73 in the closed conformation. To achieve this, the ABA injection feature in Biacore 8K was used. For open conformation, the ABA injection sequence started with 60 seconds injection of running buffer. Then, CD73 3-fold serial dilution concentration series prepared from CD73 stock (BPS Bioscience) and running buffer were injected for 180 seconds immediately followed by running buffer for 240 seconds. For closed conformation, the normal SPR running buffer was replaced by closed SPR running buffer. Surface was regenerated with 30 seconds injection of 3 M MgCl2. […] Binding affinities and kinetic association and dissociation rate constants to human, cynomolgus, and mouse CD73 in either open or closed conformations are shown in Table 8 below. The results in Table 8 ensure cynomolgus pharmacokinetic data will reflect human pharmacokinetic data.
Binding affinities and kinetic association and dissociation rate constants to human, cynomolgus, and mouse CD73 in either open or closed conformations are shown in Table 9 below.

| Molecule | ka [M⁻¹ s⁻¹] | kd [s⁻¹] |
| --- | --- | --- |
| B1 | 770000 | 0.00176 |
| B2 | 382000 | 0.00264 |
| B3 | 624000 | 0.00155 |
| B4 | 424000 | 0.000953 |
| B5 | 550000 | 0.00101 |
| B6 | 799000 | 0.00117 |
| B7 | 887000 | 0.00107 |
| B8 | >1e+06 | 0.000949 |
| B9 | 715000 | 0.00111 |
| B10 | 565000 | 0.00114 |
| B11 | 524000 | 0.00092 |
